Reference: article PMC6462529

How the values were obtained:
2G12 = test: D7324-capture ELISA; settings: PGT145-purified trimers; SOSIP.664 AUC-value printed 2.89
CH01 = test: D7324-capture ELISA; settings: PGT145-purified trimers; SOSIP.664 AUC-value printed 0.32
CH103 = test: D7324-capture ELISA; settings: PGT145-purified trimers; SOSIP.664 AUC-value printed 1.34
F105 = test: D7324-capture ELISA; settings: PGT145-purified trimers; SOSIP.664 AUC-value printed 0.12
PG16 = test: D7324-capture ELISA; settings: PGT145-purified trimers; SOSIP.664 AUC-value printed 0.55
PG9 = test: D7324-capture ELISA; settings: PGT145-purified trimers; SOSIP.664 AUC-value printed 1.70
PGT121 = test: D7324-capture ELISA; settings: PGT145-purified trimers; SOSIP.664 AUC-value printed 1.60
PGT145 = test: D7324-capture ELISA; settings: PGT145-purified trimers; SOSIP.664 AUC-value printed 0.68
PGT151 = test: D7324-capture ELISA; settings: PGT145-purified trimers; SOSIP.664 AUC-value printed 0.75
VRC26.09 = test: D7324-capture ELISA; settings: PGT145-purified trimers; SOSIP.664 AUC-value printed 0.49
gl-CH01 = test: D7324-capture ELISA; settings: PGT145-purified trimers; SOSIP.664 AUC-value printed 0.14
gl-PG16 = test: D7324-capture ELISA; settings: PGT145-purified trimers; SOSIP.664 AUC-value printed 0.01
gl-PG9 = test: D7324-capture ELISA; settings: PGT145-purified trimers; SOSIP.664 AUC-value printed 0.14
[1] = target: HIV-1 LAI Env (parental LAI virus) (HIV-1 (isolate LAI)) (UniProt P03377)

| Substance | ratio to parent (2G12) | ratio to parent (CH01) | ratio to parent (CH103) | ratio to parent (F105) | ratio to parent (PG16) | ratio to parent (PG9) | ratio to parent (PGT121) | ratio to parent (PGT145) | ratio to parent (PGT151) | ratio to parent (VRC26.09) | ratio to parent (gl-CH01) | ratio to parent (gl-PG16) | ratio to parent (gl-PG9) | IC50 of neutralization of the parental LAI virus [1] |
| --- | --- | --- | --- | --- | --- | --- | --- | --- | --- | --- | --- | --- | --- | --- |
| BG505 SOSIP.664-D7324 trimer E153C; R178C; G152E | 1 | 1.9 | 2.3 | 4.7 | 1.7 | 2 | 1.5 | 1 | 1 | 1.3 | 2.1 | 3.9 | 1.4 |  |
| PG9 (antibody) |  |  |  |  |  |  |  |  |  |  |  |  |  | 2 µg/mL |
